# Laboratory results: patent US8552166, “High-affinity nucleic acid aptamers against sclerostin protein” (The University of Hong Kong)
# B1: Scl 2 (ssDNA)
# DNA: TTGCGCGTTAATTGGGGGGGTGGGTGGGTT
# Biological target: Sclerostin (SOST) (Mus musculus, UniProt Q99P68 Q99P68:1-211)
# Assay: ITC; PBS, 25 C; n=0.91, dH -10.9 kcal/mol, TdS -2.3 kcal/mol
# Details: tags: GST fusion (pGEX-4T1, E. coli BL21(DE3)); parallel G4 (CD, Tm 75 C)
# Protocol: Sclerostin-aptamer interaction was investigated by studying the thermodynamics of the interaction of aptamer Scl 2 with sclerostin by Isothermal Titration Calorimetry. In the upper panel of FIG. 7 the calorimetric titrations of the aptamers into sclerostin solution conducted at 25° C. An exothermic heat pulse was observed after each injection of aptamers into the protein solution. The binding stoichiometry was fitted using simple single site binding model. […] The dissociation constant for the interaction of aptamer Scl 2 with sclerostin is 500 nM that is a competitive value in DNA-protein interactions. In addition, the values of ΔH and ΔS reveal that the binding processes are enthalpically driven with a favorable enthalpy of reaction (ΔH) at 25° C. of −10.9 kcal/mol offset by an unfavorable entropy of reaction (TΔS=−2.3 kcal/mol).
# For Isothermal Titration Calorimetry, equilibrium binding studies between anti-sclerostin aptamers and scleorstin are performed on MicroCal VP-ITC. In a typical ITC experiment, 15 μM GST-sclerostin or 20 μM GST was loaded into the cell with 200 μM aptamer or random sequence in the titrating syringe. GST-sclerostin and GST were dialyzed into the PBS buffer with a MWCO of 10,000. The titration experiments were performed at 25° C. with an initial 0.2 μl injection, followed by thirty 1.2 μl A injections. The spacing between injections was 200 s. […]
# Sequence of Sclerostin (SOST) (Q99P68 whole entry, one chain of several): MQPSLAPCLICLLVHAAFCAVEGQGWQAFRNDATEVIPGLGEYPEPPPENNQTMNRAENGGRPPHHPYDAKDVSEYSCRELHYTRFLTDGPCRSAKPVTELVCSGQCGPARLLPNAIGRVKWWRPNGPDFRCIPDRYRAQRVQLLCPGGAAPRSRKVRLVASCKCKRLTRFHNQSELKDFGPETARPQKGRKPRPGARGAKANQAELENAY
binder,measurement,value
B1,Kd,500 nM
